This passage reports protein stability index results from the supplement of paper PMC10567573.

The chains are these.
B1: ESRRG (parent)
chain: YSCPATNECEITKRRRKSCQACRF
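Note: lentivirally expressed fusions sorted by FACS into six bins by GFP to DsRed ratio, PSI derived from sequencing read proportions per bin multiplied by bin number.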

The series covers variants of B1. The series can be described thus: protein stability index of a GFP-peptide fusion (GPS, HEK-293T) (PSI 1-6); higher = more stable. The settings on record: c terminus: a fixed tail appended.
As for YSCPATNECEITKRRRKICQACRF, the protein stability index came out at 3.16.

Consider YSCPATNECEITKRRRKMCQACRF, for which the protein stability index is 3.38.

For YSCPATNECEITKRRRKQCQACRF, the protein stability index was determined as 3.6.

With YSCPATNECEITKRRRKLCQACRF, the protein stability index was 3.19.

In the case of YSCPATNECEITKRRRKKCQACRF, the protein stability index amounted to 3.51.

As to YSCPATNECEITKRRRKPCQACRF, the protein stability index amounted to 3.66.

In the case of YSCPATNECEITKRRRKHCQACRF, the protein stability index came to 3.48.

With YSCPATNECEITKRRRKYCQACRF, the protein stability index came to 2.87.

As to YSCPATNECEITKRRRKTCQACRF, the protein stability index was determined as 3.59.

For the variant YSCPATNECEITKRRRKFCQACRF, the protein stability index stood at 2.9.

With YSCPATNECEITKRRRKVCQACRF, the protein stability index is 3.08.

Regarding YSCPATNECEITKRRRKWCQACRF, the protein stability index was determined as 2.93.

For the variant YSCPATNECEITKRRRKNCQACRF, the protein stability index was determined as 3.44.

In the case of YSCPATNECEITKRRRKRCQACRF, the protein stability index was determined as 3.8.

As for YSCPATNECEITKRRRKDCQACRF, the protein stability index turned out to be 3.6.

As for YSCPATNECEITKRRRKACQACRF, the protein stability index is 3.58.

Take YSCPATNECEITKRRRKCCQACRF: the protein stability index turned out to be 3.31.

YSCPATNECEITKRRRKGCQACRF: the protein stability index was 2.74.

Consider YSCPATNECEITKRRRKECQACRF, for which the protein stability index amounted to 3.43.

On to YSCPATNECDITKRRRKSCQACRF, for which the protein stability index came to 3.34.

For the variant YSCPATNECCITKRRRKSCQACRF, the protein stability index came out at 3.06.

On to YSCPATNECSITKRRRKSCQACRF, for which the protein stability index came to 3.14.

In the case of YSCPATNECRITKRRRKSCQACRF, the protein stability index came to 3.44.

YSCPATNECNITKRRRKSCQACRF: the protein stability index is 3.41.

As for YSCPATNECYITKRRRKSCQACRF, the protein stability index stood at 2.39.

With YSCPATNECQITKRRRKSCQACRF, the protein stability index was found to be 3.59.

YSCPATNECHITKRRRKSCQACRF: the protein stability index is 3.08.

In the case of YSCPATNECFITKRRRKSCQACRF, the protein stability index stood at 2.53.

Regarding YSCPATNECIITKRRRKSCQACRF, the protein stability index turned out to be 2.8.

Regarding YSCPATNECLITKRRRKSCQACRF, the protein stability index is 3.06.

On to YSCPATNECMITKRRRKSCQACRF, for which the protein stability index was 2.9.

Take YSCPATNECPITKRRRKSCQACRF: the protein stability index was found to be 3.09.

As for YSCPATNECWITKRRRKSCQACRF, the protein stability index stood at 2.22.

Consider YSCPATNECTITKRRRKSCQACRF, for which the protein stability index worked out at 3.27.

As to YSCPATNECGITKRRRKSCQACRF, the protein stability index was 3.23.

With YSCPATNECVITKRRRKSCQACRF, the protein stability index was determined as 2.66.

As to YSCPATNECAITKRRRKSCQACRF, the protein stability index came to 3.27.

Consider YSCPATNECKITKRRRKSCQACRF, for which the protein stability index turned out to be 3.41.

Take YSCPATNECEITKRREKSCQACRF: the protein stability index amounted to 3.63.

YSCPATNECEITKRRVKSCQACRF: the protein stability index came out at 3.32.

Turning to YSCPATNECEITKRRKKSCQACRF, the protein stability index is 3.62.

With YSCPATNECEITKRRIKSCQACRF, the protein stability index is 3.31.

As for YSCPATNECEITKRRSKSCQACRF, the protein stability index is 3.8.

Consider YSCPATNECEITKRRWKSCQACRF, for which the protein stability index worked out at 3.06.

As for YSCPATNECEITKRRGKSCQACRF, the protein stability index turned out to be 3.66.

For the variant YSCPATNECEITKRRDKSCQACRF, the protein stability index was 3.75.

As for YSCPATNECEITKRRTKSCQACRF, the protein stability index amounted to 3.96.

As for YSCPATNECEITKRRPKSCQACRF, the protein stability index came to 3.24.

In the case of YSCPATNECEITKRRNKSCQACRF, the protein stability index stood at 3.69.

For the variant YSCPATNECEITKRRQKSCQACRF, the protein stability index was found to be 3.66.

Take YSCPATNECEITKRRCKSCQACRF: the protein stability index was 3.72.

With YSCPATNECEITKRRYKSCQACRF, the protein stability index came out at 3.

In the case of YSCPATNECEITKRRFKSCQACRF, the protein stability index stood at 2.92.

For the variant YSCPATNECEITKRRAKSCQACRF, the protein stability index was 3.48.

Consider YSCPATNECEITKRRMKSCQACRF, for which the protein stability index came out at 3.07.

With YSCPATNECEITKRRHKSCQACRF, the protein stability index worked out at 3.8.

Take YSCPATNECEITKRRLKSCQACRF: the protein stability index stood at 2.92.

In the case of YSCPATNEVEITKRRRKSCQACRF, the protein stability index turned out to be 3.46.

YSCPATNEYEITKRRRKSCQACRF: the protein stability index is 2.69.

On to YSCPATNEWEITKRRRKSCQACRF, for which the protein stability index was 2.54.

Consider YSCPATNETEITKRRRKSCQACRF, for which the protein stability index was found to be 3.61.

Take YSCPATNECEITCRRRKSCQACRF: the protein stability index came out at 3.56.

In the case of YSCPATNECEITMRRRKSCQACRF, the protein stability index stood at 3.15.

Turning to YSCPATNECEITFRRRKSCQACRF, the protein stability index came out at 2.67.

Consider YSCPATNECEITARRRKSCQACRF, for which the protein stability index was determined as 3.28.

Take YSCPATNECEITSRRRKSCQACRF: the protein stability index was found to be 3.5.

For the variant YSCPATNECEITWRRRKSCQACRF, the protein stability index worked out at 2.52.

In the case of YSCPATNECEITERRRKSCQACRF, the protein stability index was 3.45.

As for YSCPATNECEITIRRRKSCQACRF, the protein stability index was determined as 3.15.

YSCPATNECEITTRRRKSCQACRF: the protein stability index turned out to be 3.2.

YSCPATNECEITQRRRKSCQACRF: the protein stability index was determined as 3.45.

On to YSCPATNECEITLRRRKSCQACRF, for which the protein stability index was found to be 3.15.

Take YSCPATNECEITDRRRKSCQACRF: the protein stability index was 3.68.

On to YSCPATNECEITGRRRKSCQACRF, for which the protein stability index stood at 3.16.

YSCPATNECEITRRRRKSCQACRF: the protein stability index worked out at 3.64.

Take YSCPATNECEITYRRRKSCQACRF: the protein stability index was 2.78.

Consider YSCPATNECEITPRRRKSCQACRF, for which the protein stability index came out at 3.46.

For the variant YSCPATNECEITNRRRKSCQACRF, the protein stability index amounted to 3.43.

With YSCPATNECEITHRRRKSCQACRF, the protein stability index turned out to be 3.44.

In the case of YSCPATNECEITVRRRKSCQACRF, the protein stability index was 3.59.

For YSCPATNECEIPKRRRKSCQACRF, the protein stability index came to 3.86.

With YSCPATNECEIQKRRRKSCQACRF, the protein stability index came out at 3.25.

Regarding YSCPATNECEIKKRRRKSCQACRF, the protein stability index is 3.27.

As for YSCPATNECEICKRRRKSCQACRF, the protein stability index was found to be 3.85.

As for YSCPATNECEIAKRRRKSCQACRF, the protein stability index amounted to 3.32.

With YSCPATNECEIDKRRRKSCQACRF, the protein stability index came out at 3.74.

As for YSCPATNECEIWKRRRKSCQACRF, the protein stability index amounted to 2.31.

For the variant YSCPATNECEIRKRRRKSCQACRF, the protein stability index came to 3.56.

Turning to YSCPATNECEILKRRRKSCQACRF, the protein stability index was 2.71.

Turning to YSCPATNECEIMKRRRKSCQACRF, the protein stability index came out at 2.97.

Regarding YSCPATNECEIVKRRRKSCQACRF, the protein stability index was 3.33.

On to YSCPATNECEIFKRRRKSCQACRF, for which the protein stability index came out at 2.19.

Regarding YSCPATNECEIHKRRRKSCQACRF, the protein stability index came out at 4.38.

For the variant YSCPATNECEIIKRRRKSCQACRF, the protein stability index was determined as 2.69.
